The source of these data is article PMC10348681, “Reversible phase separation of ESCRT protein ALIX through tyrosine phosphorylation” (Science Advances, 2023).

Common to all, as to conditions: both partners purified
The target of test [1] is T1, ALIX1−868∗^Strep (full-length ALIX with P801G and a C-terminal strep tag) (UniProt Q8WUM4 1-868, P801G).
T1 construct: the asterisk denotes P801G; Monomeric by AUC; source: E. coli, purified (Strep-Tactin Sepharose, Q-Sepharose HP, Superdex 200); not shown: Strep tag, C-terminal, kept
T1 sequence (looked up): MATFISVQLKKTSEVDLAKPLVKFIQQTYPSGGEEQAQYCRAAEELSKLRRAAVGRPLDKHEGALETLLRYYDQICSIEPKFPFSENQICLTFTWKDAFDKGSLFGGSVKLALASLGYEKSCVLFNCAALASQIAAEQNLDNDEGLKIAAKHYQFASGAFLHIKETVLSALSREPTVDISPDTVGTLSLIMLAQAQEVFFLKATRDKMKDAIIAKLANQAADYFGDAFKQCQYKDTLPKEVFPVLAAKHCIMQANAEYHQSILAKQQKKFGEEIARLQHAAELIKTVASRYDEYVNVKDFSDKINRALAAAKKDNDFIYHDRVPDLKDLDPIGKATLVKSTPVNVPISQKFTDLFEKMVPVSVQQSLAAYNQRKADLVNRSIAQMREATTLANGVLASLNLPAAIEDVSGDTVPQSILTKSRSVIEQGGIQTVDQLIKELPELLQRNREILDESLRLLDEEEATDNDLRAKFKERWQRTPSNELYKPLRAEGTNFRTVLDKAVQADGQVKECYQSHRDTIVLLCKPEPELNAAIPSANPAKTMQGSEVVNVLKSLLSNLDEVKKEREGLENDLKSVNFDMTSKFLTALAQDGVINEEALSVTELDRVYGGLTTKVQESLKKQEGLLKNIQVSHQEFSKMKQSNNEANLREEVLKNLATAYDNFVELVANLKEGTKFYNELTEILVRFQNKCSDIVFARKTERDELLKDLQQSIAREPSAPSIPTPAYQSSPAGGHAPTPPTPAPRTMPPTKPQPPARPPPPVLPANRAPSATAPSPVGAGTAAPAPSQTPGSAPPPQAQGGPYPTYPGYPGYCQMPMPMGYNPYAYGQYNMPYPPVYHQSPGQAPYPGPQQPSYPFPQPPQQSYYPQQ
Description: ITC; 300 to 500 μM CHMP4 construct injected into 30 to 50 μM ALIX1-868* Strep or Bro1 in the cell; 25°C; 20 mM sodium phosphate (pH 6.5), 1 mM TCEP, 2 mM EDTA; independent site binding model.

In test [2] the target is T2, ALIX-Bro1 (Bro1 domain of ALIX) (UniProt Q8WUM4 3-392).
T2 construct: Bro1 domain of ALIX; residues up to 349 are spoken of
T2 sequence (looked up): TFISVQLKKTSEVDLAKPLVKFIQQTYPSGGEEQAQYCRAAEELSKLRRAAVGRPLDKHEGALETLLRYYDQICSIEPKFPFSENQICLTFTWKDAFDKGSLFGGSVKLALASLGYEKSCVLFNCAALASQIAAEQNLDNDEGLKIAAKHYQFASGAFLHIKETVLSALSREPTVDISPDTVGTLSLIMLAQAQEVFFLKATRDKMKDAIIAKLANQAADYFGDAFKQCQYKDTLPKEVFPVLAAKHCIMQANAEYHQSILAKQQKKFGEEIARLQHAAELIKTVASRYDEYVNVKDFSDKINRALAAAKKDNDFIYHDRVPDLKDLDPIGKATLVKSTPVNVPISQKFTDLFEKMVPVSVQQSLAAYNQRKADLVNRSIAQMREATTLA
The test is described as above.

Test [3] has as its target T1, ALIX1−868∗^Strep (full-length ALIX with …). In words: NMR titration; 30 μM 15N/2H-labeled CHMP4 construct with 90 μM unlabeled ALIX1-868* Strep; cross-peak heights; 30°C, 20 mM sodium phosphate (pH 6.5), 1 mM TCEP, 2 mM EDTA.
For test [4] the target is unchanged. In words: ITC; as the other ITC but with 150 mM NaCl; CHMP4C construct injected into ALIX1-868* Strep; 25°C; for the AAA mutant 1500 μM into 300 μM ALIX.

B1: CHMP4B121−224^S184C (domain or fragment, UniProt Q9H444 121-224, looked up)
chain: DNMDIDKVDELMQDIADQQELAEEISTAISKPVGFGEEFDEDELMAELEELEQEELDKNLLEICGPETVPLPNVPSIALPSKPAKKKEEEDDDMKELENWAGSM
notes: codon-optimized synthetic gene; Monomeric by AUC; also called charged multivesicular body protein 4B C-terminal fragment; not shown: GB1, N-terminal, cleaved
For the molecule B1, in test [1], binding was characterised by a dissociation constant (Kd) of 0.9 ± 0.1 µM and the “stoichiometry N” value is approximately 1. In test [2], the affinity, expressed as Kd, was 1 ± 0.2 µM.

B2: CHMP4C121−233^S191C,AAA (domain or fragment, UniProt Q96CF2 121-233, looked up)
chain: ENMDLNKIDDLMQEITEQQDIAQEISEAFSQRVGFGDDFDEDELMAELEELEQEELNKKMTNIRLPNVPSCSLPAQPNRKPGMSSTARRSRAASSQRAEEEDDDAKQAAAAAT
notes: codon-optimized synthetic gene; also called CHMP4C with three alanine substitutions in its α6 motif (I225A, L228A, W231A); not shown: GB1, N-terminal, cleaved
Regarding B2, the binding result in test [3] is “binds”.

B3: CHMP4C121−233^S191C (domain or fragment, UniProt Q96CF2 121-233, looked up)
chain: ENMDLNKIDDLMQEITEQQDIAQEISEAFSQRVGFGDDFDEDELMAELEELEQEELNKKMTNIRLPNVPSCSLPAQPNRKPGMSSTARRSRAASSQRAEEEDDDIKQLAAWAT
notes: codon-optimized synthetic gene; Monomeric by AUC; also called charged multivesicular body protein 4C C-terminal fragment; not shown: GB1, N-terminal, cleaved
Take B3: the Kd was found to be 6.1 ± 0.7 µM in test [4], 0.6 ± 0.1 µM in test [1] and 0.9 ± 0.1 µM in test [2]. The “stoichiometry N” value in test [1] is approximately 1.
